Source: US20190367619A1 (ARGENX, published 2019)

Key:
[1] = molecular target: T1, human galectin-10-His (human); assay: ELISA, Gal10-His coated at 1 ug/mL, VHH titrated, anti-Myc-HRP
T1 construct: Whether the last M of the tag is the start Met of galectin-10 is not clear; also called human Gal10-HIS; humanGal10-His
T1 chain: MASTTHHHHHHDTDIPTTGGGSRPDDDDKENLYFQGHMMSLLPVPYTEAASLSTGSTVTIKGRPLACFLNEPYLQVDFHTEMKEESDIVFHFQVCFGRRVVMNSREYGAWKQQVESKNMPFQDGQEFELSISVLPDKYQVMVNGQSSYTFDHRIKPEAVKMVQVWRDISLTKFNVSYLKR
Experimental: (§1) The binding capacity of the 15 VHH clones was analysed by ELISA. Briefly, a Maxisorp plate was coated overnight with human or cynomolgus WGS or YRT isoforms galectin-10-His at 1 μg/mL and blocked with PBS 1% casein, before being incubated with a serial dilution of the VHH (from 4 μM, dilution 1/3, 12 points of dilutions). […] Absorbance was measured at 450 nm (reference at 620 nm) with Tecan instrument. Finally, the raw data (OD values) were plotted on GraphPad Prism 7.01. […] As a positive control, clone 1D06 from the previous human specific panel was included.

[2] = molecular target: T2, cynomolgus galectin-10-His, YRT isoform (cynomolgus); assay: as above
T2 construct: not shown: His tag
T2 chain: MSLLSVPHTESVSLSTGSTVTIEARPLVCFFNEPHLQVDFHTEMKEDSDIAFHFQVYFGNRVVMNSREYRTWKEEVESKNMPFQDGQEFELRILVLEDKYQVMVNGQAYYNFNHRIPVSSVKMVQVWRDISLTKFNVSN
Experimental: as §1

[3] = molecular target: T3, cynomolgus galectin-10-His, WGS isoform (cynomolgus); assay: as above
T3 construct: not shown: His tag
T3 chain: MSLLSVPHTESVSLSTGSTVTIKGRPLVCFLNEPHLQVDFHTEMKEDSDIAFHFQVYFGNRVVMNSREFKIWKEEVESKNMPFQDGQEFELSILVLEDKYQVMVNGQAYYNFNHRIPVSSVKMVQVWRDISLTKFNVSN
Experimental: as §1

[4] = molecular target: T4, human galectin-10 as coated in ELISA (soluble galectin-10; tag not given) (human, UniProt Q05315 1-142, limits assumed); assay: ELISA, scFv periplasmic extract on coated soluble galectin-10, anti-Myc-HRP
T4 construct: also called coated galectin-10; Gal10
T4 sequence: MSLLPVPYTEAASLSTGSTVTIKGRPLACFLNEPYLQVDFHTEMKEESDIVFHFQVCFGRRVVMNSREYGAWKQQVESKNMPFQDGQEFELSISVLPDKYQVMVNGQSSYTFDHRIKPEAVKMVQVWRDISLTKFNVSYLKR
Experimental: In order to test the binding capacity of the scFvs to galectin-10, an ELISA binding assay was established. Briefly, a Maxisorp plate was coated with soluble galectin-10 (1 μg/mL), then blocked with casein, before being incubated with the periplasmic extract (dilution 1/5 in PBS) containing the scFv-Myc. Detection of the binder was carried out with an anti-Myc-HRP antibody. Absorbance was measured at 450 nm (reference at 620 nm) with Tecan instrument. A significant number of galectin-10 scFv binders were isolated after the second round of selection (45-87% of binders).

| Binder | Bmax (OD values) [1] [OD] | Bmax (OD values) [2] [OD] | EC50 [2] [nM] | Bmax (OD values) [3] [OD] | EC50 [1] [nM] | EC50 [3] [nM] | binding result [2] | binding result [3] | PERI-ELISA binding (OD values) [4] [OD] |
| --- | --- | --- | --- | --- | --- | --- | --- | --- | --- |
| VHH clone 14E10 (VHH, Purified VHH-Myc-His from E. coli; not shown: Myc and His tags of the phagemid vector) VHH: ELQLVESGGGLVQAGGSLRLSCAASEGTFRPYAMGWFRQAPRKEREFVAVISLSGAYTYNVNAVKGRFTISRDNAKNTVYLQMNSLTPEDTAIYYCGASRTYYRTDESTYEYWGQGTQVTVSS | 0.5 | 2.7 | 15.8 | 1.4 |  |  |  |  |  |
| VHH clone 13A05 (VHH, Purified VHH-Myc-His from E. coli; not shown: Myc and His tags of the phagemid vector) VHH: QVQLVESGGGLVQAGGSLRLSCAASSSSYSMSWFRQAPGKEREFVAIISWSGGTYYDDSVKGRFTVSRDNAKNTVYLQMNSLKPEDTAVYYCAAGTQFSFSYREYDYWGQGTQVTVSS | 1.8 | 2.9 | 66.3 | 2.7 | 69.7 | 77.8 |  |  |  |
| VHH clone 13C06 (VHH, Purified VHH-Myc-His from E. coli; not shown: Myc and His tags of the phagemid vector) VHH: QLQLVESGGGLVQAGGSLRLSCAASSSSYSMGWFRQAPGKEREFVATISWSGGFYYDDSVKGRFTVSRDNAKNTVYLQMNSLKPEDTAVYYCAAGTRFSFSYREYHYWGQGTQVTVSS | 2.8 | 2.9 | 16.2 | 2.9 | 27.5 | 10.3 |  |  |  |
| VHH clone 13C10 (VHH, Purified VHH-Myc-His from E. coli; not shown: Myc and His tags of the phagemid vector) VHH: QLQLVESGGGLVQAGGSLKLSCAASGRTFNPYTMGWFRQAPGKEREFVAVVSSGGGTYYANSVKGRFTISRDNAKATVYLQMNSLKPEDTAVYYCAAGSIFRWSPMSYDYWGQGTQVTVSS | 1 | 2.7 | 186 | 2.3 |  |  |  |  |  |
| VHH clone 1D06 (VHH, not shown: large carriers, Positive control from the previous human-specific panel; also called 1D6) VHH: QLQLVESGGGLVQPGGSLRLSCAASENSVSTYAMGWFRQAPGKEREFVAAITRAGGNTYNADSVKGRFTISRDNAENTIYLQMNSLKPEDTAVYSCAAGPRYSTISTMFPYWGQGTQVTVSS | 1.2 | 0 |  | 0 | 90.7 |  | no binding (tested: up to 4 uM VHH) | no binding (tested: up to 4 uM VHH) |  |
| VHH clone 13H07 (VHH, Purified VHH-Myc-His from E. coli; not shown: Myc and His tags of the phagemid vector) VHH: QLQLVESGGGLVQAGGSLRLSCVASGRTFSTYAMDWFRQAPGKEREFVAAISWHSAIYYADAVKGRFTISRDNGKNTMYLQMNNLKPEDTAVYFCAAALRYRFNPSAMEYWGKGTLVTVSS | 1.5 | 3.1 | 1.3 | 2.7 | 180 | 15.6 |  |  |  |
| scFv 4G05 (periplasmic extract, Myc-tagged) (scFv, not shown: small tags and cut ends) scFv: QLQVVESGGGLVQTGGSLTLSCTTSGFTFSRYWMIWVRQAPGKGLEWVSSIYNDGGNTYYADSVKGRFTISRDNSENTLYLQMNSLKSEDTAVYYCAKLKAAYYGMDYWGKGTLVTVSSGGGGSGGGGSGGGGSSSALTQPSAVSVSLGQTARITCQGANLGRYYGIWYQQKPGQAPVQVIYGDSNRPSGIPERFSGSSSGGTATLTISGAQAEDEADYYCQSYESSTSPVFGGGTHLTVL |  |  |  |  |  |  |  |  | 3.8 |
| scFv 4B10 (periplasmic extract, Myc-tagged) (scFv, not shown: small tags and cut ends) scFv: QLQLVESGGGLVQPGGSLRLSCAASGFTFSNYWMYWVRQAPGKGLEWVSAIDVGGGTTDYAGSVKGRFTISRDNTKSTVYLQMNTLKPEDTALYYCLRGGSYYGGMDYWGKGTLVTVSSGGGGSGGGGSGGGGSQSALTQPSAVSVSLGQTARITCQGAKLGRYYGIWYQQKPGQAPVQVIYGDSNRPSGIPERFSGSSSGGTATLTISGAQAEDEADYYCQSYESSTSPVFGGGTHLTVL |  |  |  |  |  |  |  |  | 2.44 |
| VHH clone 13E07 (VHH, Purified VHH-Myc-His from E. coli; not shown: Myc and His tags of the phagemid vector) VHH: ELQVVESGGGLVQAGDSLRLSCAVSGRTFSSYHMMWFRQAPGKEREFVAAIAWRGGTYCANSVKGRCTISRDNAKDTVYLQMNSLKPEDTAVYFCAASLRYVFDPSAMDYWGKGTLVTVSS | 1.1 | 2.4 |  | 2.3 |  | 371 |  |  |  |
| VHH clone 13D12 (VHH, Purified VHH-Myc-His from E. coli; not shown: Myc and His tags of the phagemid vector) VHH: QLQLVESGGGLVQAGDSLRLSCAASGRTFSSYHMMWFRQAPGKEREFVAALAWRGGTYCANSVKGRCTISRDNAQDTVYLQMNSLKPEDTAVYFCAASRRYVFDPSAMDYWAKGTLVTVSS | 0.8 | 2.4 | 119 | 1.3 |  |  |  |  |  |
| VHH clone 14F10 (VHH, Purified VHH-Myc-His from E. coli; not shown: Myc and His tags of the phagemid vector) VHH: EVQLVESGGGLVQAGDSLRLSCAASGRTFSGYAVGWFRQAPGKEREFVTIISWNGGTHYADSVKGRFAISRDNAKNTVYLQMNNLKPEDTAVYYCAVSPKYYFSPETYNYWGQGTQVTVSS | 0.5 | 3 | 3 | 2.6 |  | 60.4 |  |  |  |
| VHH clone 14E02 (VHH, Purified VHH-Myc-His from E. coli; not shown: Myc and His tags of the phagemid vector) VHH: QVQLVESGGGLAQAGGSLRLSCVASGRAAGTYSMAWFRQAPGKEREFVAAITWAGGYTYGADSEKGRFTISRDNAKNTVYLQMNSLKPEDTAVYSCAGGRLFTSQSSAYQYWGQGTQVTVSS | 0.7 | 2.1 |  | 1.8 |  |  |  |  |  |
| scFv 4H10 (periplasmic extract, Myc-tagged) (scFv, not shown: small tags and cut ends) scFv: QVQLVESGGGLVQPGGSLRLSCAASGFTFDDYAMSWVRQAPGKGLEWVSAISWNGGSTYYAESMKGRFTISRDNAKNTLYLQMNSLKSEDAAVYYCAKDLSASGSYYHTFGSWGQGTQVTVSSGGGGSGGGGSGGGGSQAGLTQPPSVAGTLGKTVTISCAGTSSDVGYGDYVSWYQHIPGTAPKLLIYKVKTRASGIPDRFSGSKSGNTASLTISGLQSGDESDYYCASYKNGGTAVFGGGTHLTVL |  |  |  |  |  |  |  |  | 3.48 |
| VHH clone 13C07 (VHH, Purified VHH-Myc-His from E. coli; not shown: Myc and His tags of the phagemid vector) VHH: QLQVVESGGGLVQAGGSLRLSCAASSSAYSMAWFRQAPGKEREFVAAITWSGGSHHDDSVKGRFTISRDGAKNTVYLQMNSLKPEDTAVYYCAVGTLYSFSYRDYDYWGQGTQVTVSS | 1.3 | 2.8 | 33.2 | 2.9 | 107 | 7.1 |  |  |  |
| VHH clone 13G12 (VHH, Purified VHH-Myc-His from E. coli; not shown: Myc and His tags of the phagemid vector) VHH: QLQVVESGGGLVQAGGSLRLSCAASSSAYSMGWFRQAPGKEREFVAVISWSGGSHYDDSVKGRFTISRDGAKNTVYLQMNSLKPEDTAVYYCAVGTLYSFRYRDYDYWGQGTQVTVSS | 1.6 | 3.1 | 3.1 | 2.9 | 141 | 11.8 |  |  |  |
